Laboratory results reported in the supplement of paper PMC10724198.
± gives the standard deviation of the averaged measurements.

tested on: Saccharomyces cerevisiae; assay: protein stability index of tFT-peptide fusion (C-terminal peptide) (PSI (0-1 scale)); higher = more stable (slower turnover); details: genetic background: wild type; temperature: 30 C
Procedure: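 Multiplexed protein stability (MPS) profiling in S. cerevisiae. Random 12-aa peptides (tFT-X12 library) are fused to the C-terminus of a sfGFP-mCherry tandem fluorescent timer, after mCherry and a GGGS linker. Cells are FACS-sorted into 8 mCherry/sfGFP bins and deep-sequenced. The protein stability index (PSI) is the read-weighted bin average, scaled from 0 (unstable) to 1 (stable). Only peptides with >10 reads are reported; cells were grown at 30 °C in SC-His with glucose.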
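Note: PSI is a weighted mean of sequencing reads over stability bins, variants kept only with over 10 reads, mCherry proximal and sfGFP distal, peptide attached via GGGS linker.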

GRGAKPYIKQVY and RRQPPRDQGTPC are within error of each other in protein stability index: 0.721 ± 0.034 for the first, 0.795 ± 0.13 for the second.

Going from GNSAGSGGGGRF to IHLALYKYEVMG, the protein stability index falls from 0.706 ± 0.061 to 0.584 ± 0.017.

VGERVSRRIQTR and PPPPPLLAPSPL are within error of each other in protein stability index: 0.699 ± 0.052 for the first, 0.671 ± 0.07 for the second.

First: GVGSVADWGGVG
Second: DTLPSYPVHCRP
The protein stability index of the first is lower: 0.599 ± 0.018 for the first, 0.71 ± 0.014 for the second.

GVLGLDLSVVGG and IRPWPLDPPPGR are within error of each other in protein stability index: 0.716 ± 0.035 for the first, 0.78 ± 0.08 for the second.

Going from KTRHVGSDNQGL to LSGVYPQACSRL, the protein stability index rises from 0.663 ± 0.043 to 0.734 ± 0.014.

RGGPLSSGVVLV and SLLLFPCPWFGL are within error of each other in protein stability index: 0.714 ± 0.049 for the first, 0.677 ± 0.019 for the second.

Compared with RTHTAALCRTHS, VRKGSERKKAGN is lower in protein stability index: 0.7047 ± 0.0057 for the first, 0.6686 ± 0.0043 for the second.

TNSKLTKERTEI and APEAHYRGCPPH are within error of each other in protein stability index: 0.699 ± 0.049 for the first, 0.681 ± 0.018 for the second.

PFPPPSPPPPSS and FTPSSPPLPLLP are within error of each other in protein stability index: 0.6785 ± 0.003 for the first, 0.655 ± 0.11 for the second.

RGREGSSVAVMV and SKNEIKNYNTKI are within error of each other in protein stability index: 0.646 ± 0.04 for the first, 0.642 ± 0.031 for the second.

SSPLLSISPHFP and PPLLHPLPPPLP are within error of each other in protein stability index: 0.666 ± 0.042 for the first, 0.659 ± 0.014 for the second.

FGFLSVSPLLSV and PPLPFSSSRFPS are within error of each other in protein stability index: 0.642 ± 0.016 for the first, 0.666 ± 0.02 for the second.

RLTEVRVTLGSL and LLSPDAALGRLF are within error of each other in protein stability index: 0.711 ± 0.082 for the first, 0.692 ± 0.025 for the second.

LPLGSTVVSGES and RTVPCCVAENKF are within error of each other in protein stability index: 0.632 ± 0.034 for the first, 0.672 ± 0.012 for the second.

PFAFLSPLIPPP and LAWALGESSPIG are within error of each other in protein stability index: 0.749 ± 0.013 for the first, 0.737 ± 0.044 for the second.

QSVSSTGQARLS and KTGVRAVSLTGS are within error of each other in protein stability index: 0.682 ± 0.033 for the first, 0.696 ± 0.038 for the second.

SGMGAIADENKE and YLLLVPDTRTLL are within error of each other in protein stability index: 0.635 ± 0.051 for the first, 0.683 ± 0.0079 for the second.

First: CAPTFSYSLVLS
Second: VLQEFTFPKVGL
The protein stability index of the first is lower: 0.514 ± 0.036 for the first, 0.675 ± 0.015 for the second.

First: GGAFPGPGFGLD
Second: SPACFKIFCRCF
The protein stability index of the first is higher: 0.68 ± 0.017 for the first, 0.523 ± 0.046 for the second.

Compared with KSSNIINQKRIT, PCPPPRSPPLAP is higher in protein stability index: 0.66 ± 0.056 for the first, 0.74539 ± 0.00027 for the second.

PFRLSPPLPPAP and ARPLHSIGPAII are within error of each other in protein stability index: 0.743 ± 0.084 for the first, 0.658 ± 0.0089 for the second.

Going from RALGKRFIQARD to VGNSLRCRGGWR, the protein stability index falls from 0.727 ± 0.022 to 0.628 ± 0.069.

First: IKNMWLACFGLY
Second: PRVPSSPNPPPI
The protein stability index of the first is lower: 0.667 ± 0.027 for the first, 0.805 ± 0.025 for the second.

YPHPPRPSNQLF and GGGGGVWGVGRV are within error of each other in protein stability index: 0.615 ± 0.0079 for the first, 0.66 ± 0.047 for the second.

FLSLAAPQSGGA and PHLPYCSPSFPV are within error of each other in protein stability index: 0.693 ± 0.027 for the first, 0.642 ± 0.059 for the second.

Going from GGAVSRVGEWGR to ASYSFLSFCNRV, the protein stability index falls from 0.7881 ± 0.0073 to 0.631 ± 0.015.

Going from PPPPPPPLTSLP to SPSPPLAPPSPS, the protein stability index falls from 0.7175 ± 0.0013 to 0.671 ± 0.0073.

ARNKKKDLREIK and RKRWQWGRVRGV are within error of each other in protein stability index: 0.761 ± 0.054 for the first, 0.617 ± 0.11 for the second.

First: LPPPLPPSLRLR
Second: PLPPPLPPTLPL
The protein stability index of the first is lower: 0.602 ± 0.083 for the first, 0.72 ± 0.018 for the second.

FCFRFISCPLHF and VNPAFRTSICHH are within error of each other in protein stability index: 0.549 ± 0.047 for the first, 0.584 ± 0.12 for the second.

First: KVKGKSISKINH
Second: LFPPFPPFSFSP
The protein stability index of the first is lower: 0.645 ± 0.055 for the first, 0.798 ± 0.045 for the second.

SPTARRLSGCIS and LPLRYFSFPDPF are within error of each other in protein stability index: 0.658 ± 0.086 for the first, 0.6949 ± 0.0035 for the second.

KKKHIRTEKDNK and PPPPPPPRPSFP are within error of each other in protein stability index: 0.704 ± 0.014 for the first, 0.696 ± 0.041 for the second.

WKKSEKTEHEQI and LSLLPPPPPPSP are within error of each other in protein stability index: 0.653 ± 0.12 for the first, 0.688 ± 0.011 for the second.

EEKASKSSRLKK and FKSCSLHCSRCS are within error of each other in protein stability index: 0.699 ± 0.036 for the first, 0.682 ± 0.12 for the second.

LRKNRKHINKKI showed a protein stability index of 0.626 ± 0.034.
